Results from PMC9418145, “Structure of the human NK cell NKR-P1:LLT1 receptor:ligand complex reveals clustering in the immune synapse” (Nature Communications, 2022).
Each block holds one molecule with its values, some of them ahead of it.

Key:
[1] = target: AICL (Homo sapiens) (UniProt Q92478); conditions: cited from earlier work
[2] = target: soluble human NKR-P1 ectodomain (C-type lectin-like domain, Gly90-Ser225), glycosylated with uniform GlcNAc2Man5 N-glycans (human) (UniProt Q12918); test: AUC; sedimentation velocity of equimolar mixtures of glycosylated NKR-P1 with LLT1 or LLT1^SIM at increasing concentrations, 20 °C, SEC buffer; isotherms of weight-average S fitted to A + B ⇔ AB or A + B ⇔ AB + B ⇔ BAB (A the LLT1 dimer, B the NKR-P1 monomer)
[3] = CD spectroscopy; conditions: glycan lost; control: wild-type NKR-P1 ectodomain
[4] = analytical ultracentrifugation, sedimentation velocity; conditions: glycan lost; control: wild-type NKR-P1 ectodomain
[5] = crystal structure comparison of homodimers; conditions: glycan lost; control: glycosylated NKR-P1 (GlcNAc2Man5), 5MGR
[6] = target: T1, soluble human NKR-P1 ectodomain (C-type lectin-like domain, Gly90-Ser225), glycosylated with uniform … (human, UniProt Q12918 90-225, Asn-GlcNAc2Man5 N-glycans; potential N-glycosylation sites Asn116, Asn157, Asn169); test: AUC; sedimentation velocity of equimolar mixtures of glycosylated NKR-P1 with LLT1 or LLT1^SIM at increasing concentrations, 20 °C, SEC buffer; isotherms of weight-average S fitted to A + B ⇔ AB or A + B ⇔ AB + B ⇔ BAB (A the LLT1 dimer, B the NKR-P1 monomer); conditions: both partners purified
T1 construct: residues at the N-terminus of the secreted protein, left from the N-terminal secretion leader of pOPINGGTneo; human NKR-P1 (CD161), extracellular CTL domain, Gly90-Ser225; For MST this protein was labelled with Atto 488 NHS-ester at pH 6.5; Monomeric in solution (AUC), a non-covalent helix α1-centered homodimer in the crystal; Ile168 stands in the structure; also called CD161; NKR-P1_glyco; …
T1 sequence: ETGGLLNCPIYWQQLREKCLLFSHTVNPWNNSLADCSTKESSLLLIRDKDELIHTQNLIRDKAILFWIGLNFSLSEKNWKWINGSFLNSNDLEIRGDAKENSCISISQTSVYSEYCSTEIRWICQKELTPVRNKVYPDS

[7] = target: the molecule itself; test: AUC; sedimentation velocity of the single glycosylated proteins, 48,000 rpm, 20 °C, 10 mM HEPES pH 7.5, 150 mM NaCl, 10 mM NaN3
[8] = target: T1, soluble human NKR-P1 ectodomain (C-type …); test: not stated; overall Kd of this study as told in the discussion; the experiment behind it (AUC or MST) is not named there; conditions: both partners purified

Chain of AICL (Homo sapiens) (Q92478 whole entry, the tested form may be a part): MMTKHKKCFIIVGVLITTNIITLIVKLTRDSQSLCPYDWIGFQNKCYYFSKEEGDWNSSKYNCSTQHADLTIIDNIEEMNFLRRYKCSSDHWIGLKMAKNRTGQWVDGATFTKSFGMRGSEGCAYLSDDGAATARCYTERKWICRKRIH

Molecule: NKp80 (from UniProt Q9NZS2)
Kd [1]: 2.3 µM

fold weaker overall affinity than the wild-type LLT1 [2]: 3 fold
Molecule: LLT1^SIM, N120R, R153E, K169A secondary interaction mode triple mutant of the soluble LLT1 ectodomain (from UniProt Q9UHP7 72-191) (domain or fragment)

Molecule: NKR-P1 (CD161): S159A
stability_or_folding [3]: no change
oligomerisation [4]: increases

Molecule: NKR-P1 (CD161): Endo F1
structure_or_conformation, other: pairwise Cα RMSD [5]: no change

KD of the primary interaction mode [6]: 50 µM
Kd [8]: 90 µM
B1: stabilized H176C form of the soluble human LLT1 ectodomain (Gln72-Val191), glycosylated (domain or fragment, UniProt Q9UHP7 72-191, looked up)
chain: QAACPESWIGFQRKCFYFSDDTKNWTSSQRFCDSQDADLAQVESFQELNFLLRYKGPSDHWIGLSREQGQPWKWINGTEWTRQFPILGAGECAYLNDKGASSARCYTERKWICSKSDIHV
modifications: GlcNAc2Man5 glycans
notes: human LLT1, soluble ectodomain Gln72-Val191 with the stabilising mutation H176C; also called wild-type LLT1; soluble LLT1; source: HEK293S GnTI- cells, transiently transfected, secreted, purified (IMAC on Talon, SEC)
stoichiometry N [7]: 2
